These results are taken from publication PMC4626632, “The structure of Medicago truncatula δ^1-pyrroline-5-carboxylate reductase provides new insights into regulation of proline biosynthesis in plants” (Frontiers in Plant Science, 2015).

Data set [1] concerns the target T1, δ^1-pyrroline-5-carboxylate reductase (MtP5CR) (Medicago truncatula, UniProt G7KRM5).
T1 construct: gene MTR_7g090160; MtP5CR_1, His6-tag cleaved; homodecamer
Put plainly: X-ray crystal structure of the cocrystallized complex ([…] Å). It is filed as binding.

For data set [2], the target named is T1, δ^1-pyrroline-5-carboxylate reductase (MtP5CR). Put plainly: NAD(P)H oxidation assay at […] nm, kinetic analysis of inhibition. In kind it is biochemical.
Substrate in data set [3]: NC(=O)C1=CN([C@@H]2O[C@H](COP(=O)(O)OP(=O)(O)OC[C@H]3O[C@@H](n4cnc5c(N)ncnc54)[C@H](OP(=O)(O)O)[C@@H]3O)[C@@H](O)[C@H]2O)C=CC1
Put plainly: purified protein. Conditions: varied: cofactor.

Substrate in data set [4]: NC(=O)C1=CN([C@@H]2O[C@H](COP(=O)(O)OP(=O)(O)OC[C@H]3O[C@@H](n4cnc5c(N)ncnc54)[C@H](O)[C@@H]3O)[C@@H](O)[C@H]2O)C=CC1
Put plainly: purified protein. Conditions: varied: cofactor.

Data set [5] concerns the molecule itself. Put plainly: crystal structure; space group P1, one decamer in the asymmetric unit; 100 mM HEPES/MOPS pH 7.5, 10% PEG 4000, 20% glycerol, 30 mM MgCl2, 30 mM CaCl2, 19°C; unliganded and with NAD+, NADP+ or L-proline.
Substrate in data set [6]: O=C(O)C1CCC=N1
Put plainly: steady-state kinetics of the purified enzyme, KM(app). In kind it is biochemical, Medicago truncatula. To be noted: NADPH C-terminal domain contains the P5C binding site.

Regarding `NC(=O)c1ccc[n+]([C@@H]2O[C@H](COP(=O)([O-])OP(=O)(O)OC[C@H]3O[C@@H](n4cnc5c(N)ncnc54)[C@H](O)[C@@H]3O)[C@@H](O)[C@H]2O)c1` [NAD^+], the “X-ray crystal structure of the cocrystallized complex (1.85 Å)” value in data set [1] is “In the case of NAD^+ (Figure 8A), the adenine N1 atom interacts with Nδ of Asn65”.

In data set [2], `O=S(=O)(O)CCN1CCN(CCO)CC1` [HEPES, 2-[4-(2-hydroxyethyl)piperazin-1-yl]ethanesulfonic acid] showed a Ki of 1830 ± 80 µM.

B1: Medicago truncatula δ1-pyrroline-5-carboxylate reductase (enzyme, UniProt G7KRM5 1-274, looked up)
chain: MEIIPIPADSYTLGFIGAGKMAESIAKGAVRSGVLSPSRIKTAIHSNPARRTAFESIGITVLSSNDDVVRDSNVVVFSVKPQLLKDVVLKLKPLLTKDKLLVSVAAGIKMKDLQEWAGHERFIRVMPNTAATVGEAASVMSLGGAATEEDANLISQLFGSIGKIWKADDKYFDAITGLSGSGPAYIYLAIEALADGGVAAGLPRDLALSLASQTVLGAASMATQSGKHPGQLKDDVTSPGGTTIAGVHELEKAGFRGILMNAVVAAAKRSQELS
notes: P5C reductase (EC 1.5.1.2) of Medicago truncatula, isoform MtP5CR_1 (without the 29-residue insert of MtP5CR_2, A2Q2Y7); cDNA from leaf RNA; printed primers run from the ATG to the stop codon; monomer 28.5 kDa; Vector pMCSG68: His6 tag and TEV site at the N-terminus, cut off with TEV protease; Homodecamer (pentamer of dimers); also called MtP5CR; MtP5CR_1; source: E. coli BL21 Gold, purified …
Consider B1, for which, in data set [3], the Km was 39 ± 3 µM, the Vmax is on record as 36.1 ± 0.7 μkat (mg protein)^−1, the kcat is 1113 s⁻¹ and the kcat/Km was 2.85e+07 M⁻¹ s⁻¹. In data set [4], the Km is 468 ± 22 µM, the Vmax was 92.4 ± 2.1 μkat (mg protein)^−1, the kcat is 2972 s⁻¹ and the kcat/Km came out at 6.35e+06 M⁻¹ s⁻¹. Further, the “stoichiometry N” value in data set [5] turned out to be 10. Further, in data set [6], the Km amounted to 20 ± 2 µM.
